This note sets out measurements from patent publication US12269859B2, “Synthetic immune receptors and methods of use thereof” (Angeles Therapeutics, Inc., priority 2016, dated 2025).

This assay concerns target antigen-expressing cell line. Kind of assay: Jurkat NFAT-GFP assay, coculture with target cell lines expressing the respective target antigen (summary Table 10A). It is filed as cell-based, human. Set-up: key: The signs +/−, +, 2+ etc. after the name of the cell lines indicate the relative degree of positivity on the Jurkat-NFAT-GFP assay as measured by the % GFP positive cells; +: relative degree of positivity on the Jurkat-NFAT-GFP assay as measured by the % GFP positive cells; 2+: relative degree of positivity on the Jurkat-NFAT-GFP assay as measured by the % GFP positive cells. The following applies: relative % GFP positive cells; for NFAT-GFP ASSAY Positive Cell lines: NALM6: SIR-expressing Jurkat-NFAT-GFP cells cocultured with NALM6; for NFAT-GFP ASSAY Positive Cell lines: RAJI: SIR-expressing Jurkat-NFAT-GFP cells cocultured with RAJI. In outline: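 Positivity is scored when SIR-expressing reporter Jurkat cells show more GFP-positive cells than parental controls after coculture with the antigen-bearing line. Effector-to-target ratio is about 1:2, coculture lasts roughly 4–18 hours, and GFP is quantified by FACS.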

B1: 020817-U02 (protein)
chain: MALPVTALLLPLALLLHAARPLEGKPIPNPLLGLDSTGSGEDLKNVFPPEVAVFEPSKAEIAHTQKATLVCLATGFYPDHVELSWWVNGKEVHSGVCTDPQPLKEQPALNDSRYCLSSRLRVSATFWQNPRNHFRCQVQFYGLSENDEWTQDRAKPVTQIVSAEAWGRADCGITSASYHQGVLSATILYEILLGKATLYAVLVSALVLMAMVKRKDSRGRAKRSGSGATNFSLLKQAGDVEENPGPTSMALPVTALLLPLALLLHAARPDILLTQSPATLSLSPGERATLSCRASQSVDNYGISFMNWYQQKPGQPPKLLIYAASNQGSGIPSRFSGSGSGTDFTLTISSLEPEDFAMYFCQQSNEVPRTFGGGTKLEIKGGGGSGGGGSGGGGSQVQLVESGGGLVEPGGSLRLSCMSGYAFSSSWMNWVRQMPGKGLEWMGRIYPGDGDTNYNGKFKERVTITADESTSTAYMELSSLKAEDTAVYFCARSEYWGNYWAMDYWGQGTLVTVSSTREQKLISEEDGSGIQNPDPAVYQLRDSKSSDKSVCLFTDFDSQTNVSQSKDSDVYITDKCVLDMRSMDFKSNSAVAWSNKSDFACANAFNNSIIPEDTFFPSSDVPCDVKLVEKSFETDTNLNFQNLSVIGFRILLLKVAGFNLLMTLRLWSSRAKRSGSGVKQTLNFDLLKLAGDVESNPGPSRGHMTEYKPTVRLATRDDVPRAVRTLAAAFADYPATRHTVDPDRHIERVTELQELFLTRVGLDIGKVWVADDGAAVAVWTTPESVEAGAVFAEIGPRMAELSGSRLAAQQQMEGLLAPHRPKEPAWFLATVGVSPDHQGKGLGSAVVLPGVEAAERAGVPAFLETSAPRNLPFYERLGFTVTADVEVPEGPRTWCMTRKPGA
In the case of B1, the “NFAT-GFP ASSAY Positive Cell lines: NALM6” value is “(+/−)” and the “NFAT-GFP ASSAY Positive Cell lines: RAJI” value is given as “RAJI (+), NALM6”.

B2: 070517-G02 (protein)
chain: MALPVTALLLPLALLLHAARPLETPFPSLAPPIMLLVDGKQQMVVVCLVLDVAPPGLDSPIWFSAGNGSALDAFTYGPSPATDGTWTNLAHLSLPSEELASWEPLVCHTGPGAEGHSRSTQPMHLSGEASTARTCPQEPLRGTPGGALWLGVLRLLLFKLLLFDLLLTCSCLCDPAGPLPSPATTTRLRALGSHRLHPATETGGREATSSPRPQPRDRRWGDTPPGRKPGSPVRAKRSGSGVKQTLNFDLLKLAGDVESNPGPTSTMALPVTALLLPLALLLHAARPDIQMTQSPSSLSASVGDRVTITCKASDHINNWLAWYQQKPGQAPKLLIYGATTLETGVPSRFSGSGSGTDYTLTISSLQPEDFATYYCQQSWNTPWTFGQGTKLEIKRGGGGSGGGGSGGGGSQVQLQQPGAELVKPGASVKMSCKASGYAFSSYWINWMKQKPGQGLEWIGQIYPGDGDTNYNGKFKGRATLTADTSSSTAYMQLSSLTSEDSAVYFCARSITTVVGCAMDYWGQGTSVTVSSTRGKPIPNPLLGLDSTGSGEDLKNVFPPEVAVFEPSEAEISHTQKATLVCLATGFYPDHVELSWWVNGKEVHSGVCTDPQPLKEQPALNDSRYCLSSRLRVSATFWQNPRNHFRCQVQFYGLSENDEWTQDRAKPVTQIVSAEAWGRADCGFTSESYQQGVLSATILYEILLGKATLYAVLVSALVLMAMVKRKDSRGRAKRSGSGATNFSLLKQAGDVEENPGPSRGHMTEYKPTVRLATRDDVPRAVRTLAAAFADYPATRHTVDPDRHIERVTELQELFLTRVGLDIGKVWVADDGAAVAVWTTPESVEAGAVFAEIGPRMAELSGSRLAAQQQMEGLLAPHRPKEPAWFLATVGVSPDHQGKGLGSAVVLPGVEAAERAGVPAFLETSAPRNLPFYERLGFTVTADVEVPEGPRTWCMTRKPGA
On to B2, for which the “NFAT-GFP ASSAY Positive Cell lines: NALM6” value is “(+/−)” and the “NFAT-GFP ASSAY Positive Cell lines: RAJI” value is given as “RAJI (+), NALM6”.
